The chains are these.
T1: amphyphisin SH3 (AMPH_HUMAN), P49418
T1 chain: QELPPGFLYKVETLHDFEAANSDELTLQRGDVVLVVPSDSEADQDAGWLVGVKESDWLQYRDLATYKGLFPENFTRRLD

Here are results for 38 molecules from PMC314469, “Protein Interaction Networks by Proteome Peptide Scanning” (PLoS Biology, 2004).

For the first assay, the target named is T1, amphyphisin SH3 (AMPH_HUMAN), P49418. Description: SPOT array.
VQPQLRRPFELLIA [Q96QT6 202-215]: the normalised SPOT signal, Boehringer light units (BLU); mean over the file's lines of this peptide was found to be 33.9.

Molecule VPRDLRRPASLIGQ [O60503 967-980] yielded a normalised SPOT signal, Boehringer light units (BLU); mean over the file's lines of this peptide of 25.8.

Consider VPQKPERPPLPPEP [Q9H7F7 96-110], for which the normalised SPOT signal, Boehringer light units (BLU); mean over the file's lines of this peptide stood at 216.

For VTDLPKKPPPPEVT [Q96QH2 87-101], the normalised SPOT signal, Boehringer light units (BLU); mean over the file's lines of this peptide came to 53.

VTSRFKRPVNVPRD [Q9P0K9 253-266]: the normalised SPOT signal, Boehringer light units (BLU); mean over the file's lines of this peptide was found to be 32.8.

SLGLPSRPPSQLSG [Q8TBS2 64-78] returned a normalised SPOT signal, Boehringer light units (BLU); mean over the file's lines of this peptide of 42.4.

Molecule VRLPFHRPPRAGAW [Q9UKN7 887-900] gave a normalised SPOT signal, Boehringer light units (BLU); mean over the file's lines of this peptide of 2830.

Molecule VRRIPTRPPRAPRL [Q9NWD7 62-76] gave a normalised SPOT signal, Boehringer light units (BLU); mean over the file's lines of this peptide of 25000.

VSYPPSKPPTYEEQ [Q15134 299-313] had a normalised SPOT signal, Boehringer light units (BLU); mean over the file's lines of this peptide of 56.5.

On to VRYPISRPRRRSSP [P10915 314-327], for which the normalised SPOT signal, Boehringer light units (BLU); mean over the file's lines of this peptide came to 883.

For VPSLPIRPSRAPSR [O43426 1061-1074], the normalised SPOT signal, Boehringer light units (BLU); mean over the file's lines of this peptide stood at 21500.

In the case of VRSRFKRPKPNLAR [Q9HCY0 1434-1447], the normalised SPOT signal, Boehringer light units (BLU); mean over the file's lines of this peptide was 37.

Molecule VSAALRRPGPSLVL [Q9BSQ9 205-218] came in with a normalised SPOT signal, Boehringer light units (BLU); mean over the file's lines of this peptide of 34.

On to ASEIIERPSKKDGF [Q9BZF1 153-166], for which the normalised SPOT signal, Boehringer light units (BLU); mean over the file's lines of this peptide is 129.

With VPPGLRRPGPGTLY [P56945 374-387], the normalised SPOT signal, Boehringer light units (BLU); mean over the file's lines of this peptide was found to be 41.5.

As for VQSIINRPRKSPLP [O75970 1239-1252], the normalised SPOT signal, Boehringer light units (BLU); mean over the file's lines of this peptide amounted to 109.

Molecule VRPPPARPPSGPGL [BAC04982 161-175] had a normalised SPOT signal, Boehringer light units (BLU); mean over the file's lines of this peptide of 966.

With SLLSPLRPPGQRGL [Q9UL14 222-236], the normalised SPOT signal, Boehringer light units (BLU); mean over the file's lines of this peptide was found to be 398.

SLLRPWRPLRARGS [Q9NV38 6-19] displayed a normalised SPOT signal, Boehringer light units (BLU); mean over the file's lines of this peptide of 6960.

Consider VTLLIYRPERNTKL [Q9H4N5 254-267], for which the normalised SPOT signal, Boehringer light units (BLU); mean over the file's lines of this peptide was 362.

On to VPMPIARPARQTSR [Q9Y6R4 202-215], for which the normalised SPOT signal, Boehringer light units (BLU); mean over the file's lines of this peptide is 9590.

Consider VVPQPQRPDKSPLP [P50548 338-351], for which the normalised SPOT signal, Boehringer light units (BLU); mean over the file's lines of this peptide is 64.7.

For VPPRPPRPPETART [P52849 69-83], the normalised SPOT signal, Boehringer light units (BLU); mean over the file's lines of this peptide came to 5100.

The molecule VTIRPLRPPQRARL [O15211 317-331] had a normalised SPOT signal, Boehringer light units (BLU); mean over the file's lines of this peptide of 19300.

Take VTQLPARPPPALYT [Q9NRJ4 1023-1037]: the normalised SPOT signal, Boehringer light units (BLU); mean over the file's lines of this peptide is 39.1.

For the molecule VPQKPERPPLPPKP [Q96C88 96-110], the normalised SPOT signal, Boehringer light units (BLU); mean over the file's lines of this peptide came out at 2630.

Turning to VSMQLRRPSDRELS [Q04206 268-281], the normalised SPOT signal, Boehringer light units (BLU); mean over the file's lines of this peptide is 44.8.

In turn, VVELPRRPAPPAAV [Q96SN6 144-157] came in with a normalised SPOT signal, Boehringer light units (BLU); mean over the file's lines of this peptide of 35.8.

The molecule VVPVPERPPEPRAM [O94820 840-854] came in with a normalised SPOT signal, Boehringer light units (BLU); mean over the file's lines of this peptide of 15.7.

Consider VSGPPRKPPGTVAG [O00255 515-529], for which the normalised SPOT signal, Boehringer light units (BLU); mean over the file's lines of this peptide came to 61.2.

Regarding VTSKPRKPPTPPEK [Q96JP2 954-968], the normalised SPOT signal, Boehringer light units (BLU); mean over the file's lines of this peptide amounted to 157.

VSVLPKRPRPAEFK [Q96QH2 350-363] returned a normalised SPOT signal, Boehringer light units (BLU); mean over the file's lines of this peptide of 54.2.

In turn, VTDLPKKPPPPEAT [Q96QH2 111-125] yielded a normalised SPOT signal, Boehringer light units (BLU); mean over the file's lines of this peptide of 51.8.

With VPPPPARPPPRSAR [Q8WY41 65-79], the normalised SPOT signal, Boehringer light units (BLU); mean over the file's lines of this peptide came out at 14700.

Molecule VPLPPARPPTRDNP [Q13191 775-789] gave a normalised SPOT signal, Boehringer light units (BLU); mean over the file's lines of this peptide of 1730.

On to VSPEPRRPAPAVSP [Q96JM3 305-318], for which the normalised SPOT signal, Boehringer light units (BLU); mean over the file's lines of this peptide amounted to 233.

VRLLIRRPESFGPA [Q92736 2321-2334] showed a normalised SPOT signal, Boehringer light units (BLU); mean over the file's lines of this peptide of 15.5.

Molecule VSHLIRRPISVNPN [Q9NXY9 858-871] returned a normalised SPOT signal, Boehringer light units (BLU); mean over the file's lines of this peptide of 36.8.

A further assay addresses endophilin SH3 (SH3G2_HUMAN), Q99962. Put plainly: SPOT array.
Molecule VQPQLRRPFELLIA [Q96QT6 202-215] registered a normalised SPOT signal, Boehringer light units (BLU); mean over the file's lines of this peptide of 41.

Take VPRDLRRPASLIGQ [O60503 967-980]: the normalised SPOT signal, Boehringer light units (BLU); mean over the file's lines of this peptide was 19.5.

VPQKPERPPLPPEP [Q9H7F7 96-110] registered a normalised SPOT signal, Boehringer light units (BLU); mean over the file's lines of this peptide of 4660.

Take VTDLPKKPPPPEVT [Q96QH2 87-101]: the normalised SPOT signal, Boehringer light units (BLU); mean over the file's lines of this peptide is 58.7.

Turning to VTSRFKRPVNVPRD [Q9P0K9 253-266], the normalised SPOT signal, Boehringer light units (BLU); mean over the file's lines of this peptide worked out at 33.4.

Molecule SLGLPSRPPSQLSG [Q8TBS2 64-78] had a normalised SPOT signal, Boehringer light units (BLU); mean over the file's lines of this peptide of 101.

For VRLPFHRPPRAGAW [Q9UKN7 887-900], the normalised SPOT signal, Boehringer light units (BLU); mean over the file's lines of this peptide stood at 455.

Turning to VRRIPTRPPRAPRL [Q9NWD7 62-76], the normalised SPOT signal, Boehringer light units (BLU); mean over the file's lines of this peptide is 14400.

VSYPPSKPPTYEEQ [Q15134 299-313]: the normalised SPOT signal, Boehringer light units (BLU); mean over the file's lines of this peptide amounted to 42.4.

Molecule VRYPISRPRRRSSP [P10915 314-327] had a normalised SPOT signal, Boehringer light units (BLU); mean over the file's lines of this peptide of 961.

In the case of VPSLPIRPSRAPSR [O43426 1061-1074], the normalised SPOT signal, Boehringer light units (BLU); mean over the file's lines of this peptide is 24800.

Take VRSRFKRPKPNLAR [Q9HCY0 1434-1447]: the normalised SPOT signal, Boehringer light units (BLU); mean over the file's lines of this peptide turned out to be 43.1.

The molecule VSAALRRPGPSLVL [Q9BSQ9 205-218] displayed a normalised SPOT signal, Boehringer light units (BLU); mean over the file's lines of this peptide of 0.

ASEIIERPSKKDGF [Q9BZF1 153-166]: the normalised SPOT signal, Boehringer light units (BLU); mean over the file's lines of this peptide amounted to 0.4.

With VPPGLRRPGPGTLY [P56945 374-387], the normalised SPOT signal, Boehringer light units (BLU); mean over the file's lines of this peptide was determined as 43.6.

On to VQSIINRPRKSPLP [O75970 1239-1252], for which the normalised SPOT signal, Boehringer light units (BLU); mean over the file's lines of this peptide was 84.7.

VRPPPARPPSGPGL [BAC04982 161-175] showed a normalised SPOT signal, Boehringer light units (BLU); mean over the file's lines of this peptide of 13000.

Molecule SLLSPLRPPGQRGL [Q9UL14 222-236] came in with a normalised SPOT signal, Boehringer light units (BLU); mean over the file's lines of this peptide of 323.

For SLLRPWRPLRARGS [Q9NV38 6-19], the normalised SPOT signal, Boehringer light units (BLU); mean over the file's lines of this peptide was 2400.

In turn, VTLLIYRPERNTKL [Q9H4N5 254-267] returned a normalised SPOT signal, Boehringer light units (BLU); mean over the file's lines of this peptide of 28.7.

For VPMPIARPARQTSR [Q9Y6R4 202-215], the normalised SPOT signal, Boehringer light units (BLU); mean over the file's lines of this peptide was 1680.

For the molecule VVPQPQRPDKSPLP [P50548 338-351], the normalised SPOT signal, Boehringer light units (BLU); mean over the file's lines of this peptide stood at 279.

VPPRPPRPPETART [P52849 69-83] returned a normalised SPOT signal, Boehringer light units (BLU); mean over the file's lines of this peptide of 5710.

The molecule VTIRPLRPPQRARL [O15211 317-331] displayed a normalised SPOT signal, Boehringer light units (BLU); mean over the file's lines of this peptide of 11400.

VTQLPARPPPALYT [Q9NRJ4 1023-1037]: the normalised SPOT signal, Boehringer light units (BLU); mean over the file's lines of this peptide is 1400.

In turn, VPQKPERPPLPPKP [Q96C88 96-110] showed a normalised SPOT signal, Boehringer light units (BLU); mean over the file's lines of this peptide of 13800.

With VSMQLRRPSDRELS [Q04206 268-281], the normalised SPOT signal, Boehringer light units (BLU); mean over the file's lines of this peptide was 642.

For VVELPRRPAPPAAV [Q96SN6 144-157], the normalised SPOT signal, Boehringer light units (BLU); mean over the file's lines of this peptide was 60.5.

With VVPVPERPPEPRAM [O94820 840-854], the normalised SPOT signal, Boehringer light units (BLU); mean over the file's lines of this peptide came out at 860.

On to VSGPPRKPPGTVAG [O00255 515-529], for which the normalised SPOT signal, Boehringer light units (BLU); mean over the file's lines of this peptide turned out to be 63.4.

The molecule VTSKPRKPPTPPEK [Q96JP2 954-968] returned a normalised SPOT signal, Boehringer light units (BLU); mean over the file's lines of this peptide of 1560.

In turn, VSVLPKRPRPAEFK [Q96QH2 350-363] returned a normalised SPOT signal, Boehringer light units (BLU); mean over the file's lines of this peptide of 5850.

As to VTDLPKKPPPPEAT [Q96QH2 111-125], the normalised SPOT signal, Boehringer light units (BLU); mean over the file's lines of this peptide came to 58.

In turn, VPPPPARPPPRSAR [Q8WY41 65-79] had a normalised SPOT signal, Boehringer light units (BLU); mean over the file's lines of this peptide of 11800.

In turn, VPLPPARPPTRDNP [Q13191 775-789] came in with a normalised SPOT signal, Boehringer light units (BLU); mean over the file's lines of this peptide of 592.

Regarding VSPEPRRPAPAVSP [Q96JM3 305-318], the normalised SPOT signal, Boehringer light units (BLU); mean over the file's lines of this peptide is 10.4.

VRLLIRRPESFGPA [Q92736 2321-2334]: the normalised SPOT signal, Boehringer light units (BLU); mean over the file's lines of this peptide was 539.

On to VSHLIRRPISVNPN [Q9NXY9 858-871], for which the normalised SPOT signal, Boehringer light units (BLU); mean over the file's lines of this peptide turned out to be 381.
